What was measured:
[1] = target: T1, EspG5 (M. tuberculosis), crystallization construct (M. tuberculosis H37Rv, UniProt O53943 1-300); assay: crystal structure
T1 sequence: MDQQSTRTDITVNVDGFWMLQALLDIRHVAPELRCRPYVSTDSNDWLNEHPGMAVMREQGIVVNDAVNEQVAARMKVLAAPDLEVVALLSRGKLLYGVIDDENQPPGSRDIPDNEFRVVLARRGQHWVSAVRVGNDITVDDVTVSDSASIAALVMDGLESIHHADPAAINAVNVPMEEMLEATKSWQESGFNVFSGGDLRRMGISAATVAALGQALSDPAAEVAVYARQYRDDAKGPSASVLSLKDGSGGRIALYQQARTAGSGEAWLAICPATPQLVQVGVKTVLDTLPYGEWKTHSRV

[2] = target: T2, EspG5 (M. tuberculosis), from His6-SUMO3-EspG5, tag cleaved (M. tuberculosis, UniProt O53943 1-300); assay: ITC
T2 sequence: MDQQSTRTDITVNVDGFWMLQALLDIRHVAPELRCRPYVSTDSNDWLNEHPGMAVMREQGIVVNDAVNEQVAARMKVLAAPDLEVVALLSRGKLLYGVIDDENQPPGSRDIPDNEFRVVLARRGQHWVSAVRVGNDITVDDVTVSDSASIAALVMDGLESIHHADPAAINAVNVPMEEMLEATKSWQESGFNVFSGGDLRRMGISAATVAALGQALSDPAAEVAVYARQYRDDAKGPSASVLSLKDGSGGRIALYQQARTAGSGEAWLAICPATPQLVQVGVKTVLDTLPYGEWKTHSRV

B1: PPE41 (M. tuberculosis), chain of the crystallized complex (natural protein)
chain: MHFEAYPPEVNSANIYAGPGPDSMLAAARAWRSLDVEMTAVQRSFNRTLLSLMDAWAGPVVMQLMEAAKPFVRWLTDLCVQLSEVERQIHEIVRAYEWAHHDMVPLAQIYNNRAERQILIDNNALGQFTAQIADLDQEYDDFWDEDGEVMRDYRLRVSDALSKLTPWKAPPPIAHSTVLVAPVSPSTASSRTDT
binding result [1]: binds

B2: His6-PE25–PPE41 heterodimer (M. tuberculosis), wild type (complex)
chain 1: MSFVITNPEALTVAATEVRRIRDRAIQSDAQVAPMTTAVRPPAADLVSEKAATFLVEYARKYRQTIAAAAVVLEEFAHALTTGADKYATAEADNIKTFS
chain 2: MHFEAYPPEVNSANIYAGPGPDSMLAAARAWRSLDVEMTAVQRSFNRTLLSLMDAWAGPVVMQLMEAAKPFVRWLTDLCVQLSEVERQIHEIVRAYEWAHHDMVPLAQIYNNRAERQILIDNNALGQFTAQIADLDQEYDDFWDEDGEVMRDYRLRVSDALSKLTPWKAPPPIAHSTVLVAPVSPSTASSRTDT
Kd [2]: 0.0481 µM
